# Data taken from patent US20030191048A1.
# Target: c-Kit (CD 117) receptor tyrosine kinase on DMVEC (human) (UniProt P10721)
# Experiment: cell-based or functional assay
# Sequence of c-Kit (CD 117) receptor tyrosine kinase on DMVEC (human) (P10721 26-976): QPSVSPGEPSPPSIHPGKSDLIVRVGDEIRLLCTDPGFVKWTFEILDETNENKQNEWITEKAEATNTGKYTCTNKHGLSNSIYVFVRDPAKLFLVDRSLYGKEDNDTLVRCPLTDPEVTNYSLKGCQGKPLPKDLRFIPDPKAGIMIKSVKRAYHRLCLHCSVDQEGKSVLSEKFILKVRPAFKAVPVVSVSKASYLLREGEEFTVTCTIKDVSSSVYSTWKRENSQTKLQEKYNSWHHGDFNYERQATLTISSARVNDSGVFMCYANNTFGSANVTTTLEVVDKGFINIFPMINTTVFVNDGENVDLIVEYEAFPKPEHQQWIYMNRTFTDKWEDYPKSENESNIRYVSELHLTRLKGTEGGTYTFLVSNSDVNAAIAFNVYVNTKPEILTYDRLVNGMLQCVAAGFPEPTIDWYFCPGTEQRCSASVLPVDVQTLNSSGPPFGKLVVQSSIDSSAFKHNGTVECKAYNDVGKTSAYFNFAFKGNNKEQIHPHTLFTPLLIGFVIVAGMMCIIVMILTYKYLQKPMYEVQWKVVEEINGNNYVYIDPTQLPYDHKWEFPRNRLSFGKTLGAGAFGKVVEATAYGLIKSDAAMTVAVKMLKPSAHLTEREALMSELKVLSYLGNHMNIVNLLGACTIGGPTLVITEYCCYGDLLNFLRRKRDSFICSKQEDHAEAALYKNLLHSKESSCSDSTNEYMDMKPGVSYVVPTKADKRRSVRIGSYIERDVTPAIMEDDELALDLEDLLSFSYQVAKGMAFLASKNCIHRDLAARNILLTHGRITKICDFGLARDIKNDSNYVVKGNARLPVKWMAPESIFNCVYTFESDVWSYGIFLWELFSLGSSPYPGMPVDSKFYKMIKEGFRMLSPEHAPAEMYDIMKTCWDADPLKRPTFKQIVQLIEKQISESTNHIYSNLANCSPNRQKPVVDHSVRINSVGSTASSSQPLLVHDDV
substance,measurement,value
recombinant stem cell factor (SCF) (from UniProt P21583 26-189) (ligand),"SCF dose giving maximal proliferation (XTT-based assay), mock- and KSHV-infected DMVEC",50 to 100 ng/mL
same,"proliferation (XTT-based assay), increase over basal proliferation, KSHV-infected DMVEC",< 85%
same,"proliferation (XTT-based assay), increase over basal proliferation, mock-infected DMVEC",< 40%
